Test results from article PMC2063866.

What was measured:
[1] = target: FLAG-tagged WAVE2 stably expressed in A431 cells (UniProt Q9Y6W5); assay: co-IP
[2] = target: Recombinant full-length WAVE2 tagged with GST at its COOH terminus (UniProt Q9Y6W5); assay: dual polarization interferometry
Sequence of Recombinant full-length WAVE2 tagged with GST at its COOH terminus (Q9Y6W5 whole entry): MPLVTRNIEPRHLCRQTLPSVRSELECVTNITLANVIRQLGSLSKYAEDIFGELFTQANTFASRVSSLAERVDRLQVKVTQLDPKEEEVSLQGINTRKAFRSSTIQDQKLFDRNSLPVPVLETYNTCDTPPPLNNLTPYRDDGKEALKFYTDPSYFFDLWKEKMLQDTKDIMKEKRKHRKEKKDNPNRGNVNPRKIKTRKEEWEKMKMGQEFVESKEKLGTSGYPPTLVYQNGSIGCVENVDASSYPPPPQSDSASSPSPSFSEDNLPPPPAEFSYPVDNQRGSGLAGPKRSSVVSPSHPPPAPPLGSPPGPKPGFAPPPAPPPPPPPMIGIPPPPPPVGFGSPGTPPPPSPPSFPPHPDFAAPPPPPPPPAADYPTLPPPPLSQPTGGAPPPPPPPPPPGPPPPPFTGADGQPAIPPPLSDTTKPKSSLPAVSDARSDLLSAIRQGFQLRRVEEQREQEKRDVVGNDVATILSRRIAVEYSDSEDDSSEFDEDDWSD

Sequence of FLAG-tagged WAVE2 stably expressed in A431 cells (Q9Y6W5 whole entry): as above

| Substance | molar ratio of IRSp53 to WAVE2 in the purified complex [1] | Kd [2] [µM] |
| --- | --- | --- |
| IRSp53, endogenous in A431 cells (from UniProt Q9UQB8 1-552) (natural protein) | 0.0005 | – |
| SH3 domain of IRSp53 (aa 363–521) (from UniProt Q9UQB8 363-521) (domain or fragment) | – | 5.7 |
